± gives the uncertainty stated by the source.
Assay: amyloid nucleation score (Sup35N fusion, yeast selection) (log enrichment); library NNK3; higher = more nucleation; inactive = no reads after selection
Summary of the method: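 Nucleation score is defined as the DiMSum log enrichment of output over input reads, with centring on the mode score of non-aggregating sequences. A minimum of 100 input reads was required for each sequence. Reads came from Illumina sequencing of plasmid inserts from psi-negative yeast expressing Sup35N fused to peptides of 20 random codons, induced with 100 μM copper sulfate for 24 hours and grown 7 days at 30°C on medium lacking adenine and uracil.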

Substance	amyloid nucleation score
SGTNNIVLLGHFVDFLEGVL	inactive
SGVCYFHARTRKSSSLRELV	1.2 ± 0.12
SGVLLFGVSRMHQR	0.203 ± 0.28
SGVWFVGRVCELHSWFINLS	inactive
SGWTPYLCSSSYELFREQRK	-0.084 ± 0.27
SHAEVCQLSTSGPL	inactive
SHCYTRVLCTLVVFT	inactive
SHFAEQGLSCSLSYSFSTIL	inactive
SHLFREIDITWSCSLVISCN	inactive
SHQFYMSARTNW	0.701 ± 0.24
SHVHLDSSRKRHIDLTNALR	inactive
SHYRDK	inactive
SIDDVDFSGTAKMSSSQRCT	inactive
SIFFIKTYESFDSSLFKSSS	inactive
SIFFNVVLFWGVWELTQGNR	0.803 ± 0.27
SIIGASLLNYF	inactive
SIIIIISCFGVQNVWFAEMM	0.405 ± 0.3
SILDCLLKMGFNTILHACWN	inactive
SINGRDSQG	inactive
SIPLGFGMLSDDKSI	inactive
SIPNTTFIFSLL	1.19 ± 0.08
SIPVSCGPLKKDVVREIRVK	inactive
SIQRICMYLKGESCTRVYHS	inactive
SIRLGNNSWPVATSVKWHSV	inactive

Substance	amyloid nucleation score
SIRVSVMFNIRKKVFDLQRF	inactive
SISRLVISF	inactive
SITFGFESFDVVLGNM	inactive
SIVSRLLDSIPMMIMSFYFG	inactive
SIYCTLRVVGT	inactive
SIYDSVFKMFCVWIVTSVLF	inactive
SKCGLLNSSGTYWNIG	0.934 ± 0.15
SKESCRCLSWCGPEPRSCIA	inactive
SKFSSC	inactive
SKGSWHVFNKGSEWVKYFGM	inactive
SKGTLKHLN	0.921 ± 0.12
SKIFVNIDYVKVFRMICEWR	inactive
SKIGILWCLMSEECYLFQFR	inactive
SKIVNHFNDHYHFEITCQYQ	2.88 ± 0.057
SKLRYRCSNSHQVIGTPCLD	inactive
SKSARVLSFYYPYFFISINL	inactive
SKTHRSVFMMAVIELKPTNS	inactive
SKVPYPNLVTCVVLCVGFYV	inactive
SLASRHIGHLLISFLLGYGA	inactive
SLCNGCMIK	inactive
SLDKLAFRD	inactive
SLEHHQIIYVLARPACL	inactive
SLFLLFLWYGINDTYLVYFV	inactive
SLFRNS	inactive

Substance	amyloid nucleation score
SLGNYHTLGMVFRLA	-0.093 ± 0.48
SLGRFDLMCHTKYLSTTVVF	inactive
SLGYGDI	inactive
SLHWVYYIINYTVALTGVLL	inactive
SLHYEHLAGMTCRLVLEYLI	inactive
SLIQY	inactive
SLIYTRFGSTSWCSKNF	1.53 ± 0.14
SLKMK	inactive
SLLALNRSPVLMRYISEHCN	inactive
SLLDGTYYNTI	inactive
SLLNSNHHGRVMQPRRINSD	inactive
SLLYFLRNVKC	inactive
SLMEGYSFSVPRSASRCSSQ	inactive
SLMNHLSGTKVMLGRLRYSN	inactive
SLMPMNYYGVTINVRWSLIQ	0.554 ± 0.45
SLRDRKDRWGCQMLRRWVDF	inactive
SLRFISSLWV	inactive
SLRFMLWLLL	inactive
SLRLSCVDVQVNN	-0.253 ± 0.9
SLRSCGSGLRSYRAVKTLPG	inactive
SLSEEYDTLPATWTAQVCKR	inactive
SLSHECTSNKTEQVIERRLW	inactive
SLSIVETIGVCL	inactive
SLTMNLFVRTASCGLASRVR	-0.541 ± 1.7

Substance	amyloid nucleation score
SLVYACSSEL	inactive
SLWNDFMCQSCLGVIVNGAA	0.253 ± 0.6
SLWPSRNCVDEEVFDFSDKS	inactive
SLWVSI	inactive
SLYFDT	inactive
SMDCFYLSHCRYRPRVI	inactive
SMDMRWAFICLILTITSMGR	inactive
SMDVLRFDQYRWLYRVFNLH	inactive
SMFCMVSFMMW	-0.071 ± 0.22
SMFGLRLIDG	inactive
SMFMLCVSADGEFFNCGTNH	inactive
SMHRQVPFPMKKHLEHLSMT	inactive
SMINKRR	1.16 ± 0.15
SMIYRLRSWVQYCDSQC	0.344 ± 0.21
SMKEVLMTSGTSNVITSGGD	inactive
SMKLLT	-0.254 ± 0.7
SMLLVGTPDIIGDS	inactive
SMNTHGCFYRRYLSESPFEC	inactive
SMRSA	inactive
SMSMDAYPQPPLNAMVLVSH	inactive
SMVVERGNQRLRSTYYADCV	inactive
SNASIYRSFWWGKYSRA	-0.619 ± 0.82
SNDFEVLVLQLLYFSIWCY	1.48 ± 0.091
SNEEYGGSQKETCTIGSSLG	inactive

Substance	amyloid nucleation score
SNFFRYIFYTRSQFSFQLIN	inactive
SNIDCLFNNVLCWIVFEWC	1.07 ± 0.11
SNIRYRNFRSGFFIQWLHTG	inactive
SNLHMILDGWEMCALHAAMG	inactive
SNLLCEALETRLYPRLKHVR	inactive
SNLMYGNISINLDRWYVAFF	2.51 ± 0.074
SNMNV	inactive
SNMSMMSYYAGRDPRPVSFL	inactive
SNRNRTTNMNHEPLANYSFN	inactive
SNYVMKVYRACHQVQPTISA	inactive
SPARRLAAFGFVVL	-0.385 ± 1.2
SPCIVLVQKLCGLGCRFVSV	1.68 ± 0.11
SPLKIMH	inactive
SPLNQVSGYIMFWYSGT	inactive
SPQLNCEANWKVFCWAGMDP	inactive
SPRSFIILVGNGYISCSSVE	2.56 ± 0.073
SPTRQLIKFKYSGHYIVHLR	inactive
SPVHLCMDLGSS	inactive
SPVVIRFTLLIKCRWLVVWI	inactive
SQACNHLVADRSTIGELSRM	inactive
SQFDAYPCKMFHVYKNYP	inactive
SQFTEICTPVRHGSCCR	inactive
